From article PMC7265302 (Nature Communications, 2020)

How the values were obtained:
Lpg2149, wild type = Lpg2149, wild type (Legionella pneumophila, UniProt Q5ZTL2 1-119); test: ITC; conditions: both partners purified
Lpg2149 (aa 9–119) = Lpg2149 (aa 9–119) (Legionella pneumophila, UniProt Q5ZTL2 9-119); test: crystal structure; conditions: both partners purified

B1: MvcA, wild type (enzyme)
chain: MIVRGINMTKIKLESPGFMVHKKLKSMSQSYGVMMTGVPAEVLGQMQAERSIPSINKTGNLKQQIAKEVSKVCHMMTEPTQSCGQASNDVCELLLGKIEAEKFHFTKYEALSADGDNLKNVLENTAPSSTNLLIRFEIDREDPPIVLVKTKNENFNPETAVKNKIYLLENKLYFIDKMGNLFNLGPGKKKCTQLFNAIGDSAEYSLCDPFVLEEPEKPEDFAISEIVDIFNEQKERFDFWIGSHSFTIYIPQTLGESPRQFYPYQAYFGSHTLQDWFVSDKDEYLSRIGIDKYIEKLAVLGKTTNTKERSDIYAEFFSKRGREAFFCAHLNEKRQPLRVKFKITEINPELALKNLQETQEFIDTHPGENPSDKVENYRNRAKLAMTEHLESLLDIKPESSPSLFWKNVDKKEQEMTDSSRYKKGPS
Kd (Lpg2149, wild type): ~28.1 nM

B2: MvcA (aa 1–400) (enzyme)
chain: MIVRGINMTKIKLESPGFMVHKKLKSMSQSYGVMMTGVPAEVLGQMQAERSIPSINKTGNLKQQIAKEVSKVCHMMTEPTQSCGQASNDVCELLLGKIEAEKFHFTKYEALSADGDNLKNVLENTAPSSTNLLIRFEIDREDPPIVLVKTKNENFNPETAVKNKIYLLENKLYFIDKMGNLFNLGPGKKKCTQLFNAIGDSAEYSLCDPFVLEEPEKPEDFAISEIVDIFNEQKERFDFWIGSHSFTIYIPQTLGESPRQFYPYQAYFGSHTLQDWFVSDKDEYLSRIGIDKYIEKLAVLGKTTNTKERSDIYAEFFSKRGREAFFCAHLNEKRQPLRVKFKITEINPELALKNLQETQEFIDTHPGENPSDKVENYRNRAKLAMTEHLESLLDIKPESS
binding result (Lpg2149 (aa 9–119)): binds
